Experimental data reported in article doi:10.1101/2023.11.01.565146.

Target: Mlph-ABD labelled with ATTO 488 NHS Ester dye (mouse) (UniProt Q91V27)
Experiment: MST

Chain of UniProt Q91V27 (Q91V27 401-590): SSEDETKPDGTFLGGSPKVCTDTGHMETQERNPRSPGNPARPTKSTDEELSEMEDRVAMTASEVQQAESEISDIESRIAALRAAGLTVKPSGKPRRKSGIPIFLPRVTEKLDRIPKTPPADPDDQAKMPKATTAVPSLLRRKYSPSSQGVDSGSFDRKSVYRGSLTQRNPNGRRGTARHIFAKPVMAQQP

Flag-Myo5a-MTD (residues 1106-1467), bacterial-expressed (domain or fragment)
Kd: 562 nM
